Measured values: patent US6855693B2, “Peptides for activation and inhibition of δPKC” (The Board of Trustees of the Leland Stanford Junior …, priority 2001, dated 2005)
No end group written: not given here.

Experiments:
δPKC = molecular target: T1, δPKC (Rattus norvegicus, UniProt P09215); assay: Translocation of δPKC in primary cardiac myocytes (Western blot of soluble and particulate fractions); assay type: cell-based
T1 construct: endogenous in cells; host or cells: primary neonatal rat cardiac myocytes
Procedure: As described in Example 1, the δV1-1 and ψδRACK peptides were analyzed to determine whether the peptides had activity, and if so, whether the activity was as an agonist or an antagonist of δPKC. As will be shown, δV1-1, δV1-2 and δV1-5 are δPKC antagonists and ψδRACK is a δPKC agonist. In these studies, the δV1-1 and ψδRACK peptides were modified with a carrier peptide by cross-linking via an N-terminal Cys-Cys bond to the Drosophila Antennapedia homeodomain (SEQ ID NO:8; Théodore, L., et al.; Johnson, J. A. et al., 1996b). In other studies, not described here, the peptide was modified with Tat (SEQ ID NO:9) or with polyarginine (Mitchell et al., 2000; Rothbard et al., 2000) and gave results similar to those described herein. Details of the study are set forth in Example 1. In brief, the Antennapedia-conjugated peptides were introduced to cardiac cells at a concentration of 500 nM in the presence and absence of phorbol 12-myristate 13-acetate (PMA) or in the presence of each other. Translocation of δPKC isozyme was assessed by Western blot analysis cystosolic and particulate fractions of treated cells. Subcellular localization of δPKC isozyme was assessed by immunofluorescence by probing the blot with […], and anti-εPKC antibodies. Translocation was expressed as the amount of isozyme in the particulate fraction over the amount of isozyme in non-treated cells.
Primary cardiac myocyte cell cultures (90-95% pure) were prepared from newborn rats (Gray, M. O. et al.; Disatnik M.-H. et al.). The peptides δV1-1 and ψδRACK were introduced into cells at an applied concentration of 500 nM in the presence and absence of phorbol 12-myristate 13-acetate (PMA) at concentrations of 3 nm and 10 nm, respectively, for 10-20 minutes. In a third set of cells, the peptide δV1-1 was applied at a concentration of 500 nM in the presence and absence of 500 nM ψδRACK.
Translocation of δPKC isozyme was assessed by using δPKC isozyme-specific antibodies in Western blot analysis (Santa Cruz Biotechnology). Western blot analysis of cystosolic and particulate fractions of treated cells was carried out as described by Johnson et al., 1995. Subcellular localization of dPKC isozymes was assessed by chemiluminescence of blots probed with anti-δPKC, anti-αPKC and anti-εPKC antibodies. Amounts of PKC isozymes in each fraction was quantitated using a scanner and translocation is expressed as the amount of isozymes in the particulate fraction over the amount of isozymes in non-treated cells. Changes in translocation of δPKC isozyme were also determined by immunofluoresence study of treated and fixed cells (Gray et al., 1997). Translocation was determined by counting over 100 cells/treatment in a blinded fashion. The results are shown in FIG. 2A-2B, FIGS. 3A-3B and FIGS. 4A-4B.

εPKC = molecular target: T2, εPKC (Rattus norvegicus, UniProt P09216); assay: Translocation of εPKC in primary cardiac myocytes (Western blot); assay type: cell-based; conditions: data not shown
T2 construct: blots probed with anti-δPKC, anti-αPKC and anti-εPKC antibodies; endogenous in cells; host or cells: primary neonatal rat cardiac myocytes
T2 sequence (P09216 1-737): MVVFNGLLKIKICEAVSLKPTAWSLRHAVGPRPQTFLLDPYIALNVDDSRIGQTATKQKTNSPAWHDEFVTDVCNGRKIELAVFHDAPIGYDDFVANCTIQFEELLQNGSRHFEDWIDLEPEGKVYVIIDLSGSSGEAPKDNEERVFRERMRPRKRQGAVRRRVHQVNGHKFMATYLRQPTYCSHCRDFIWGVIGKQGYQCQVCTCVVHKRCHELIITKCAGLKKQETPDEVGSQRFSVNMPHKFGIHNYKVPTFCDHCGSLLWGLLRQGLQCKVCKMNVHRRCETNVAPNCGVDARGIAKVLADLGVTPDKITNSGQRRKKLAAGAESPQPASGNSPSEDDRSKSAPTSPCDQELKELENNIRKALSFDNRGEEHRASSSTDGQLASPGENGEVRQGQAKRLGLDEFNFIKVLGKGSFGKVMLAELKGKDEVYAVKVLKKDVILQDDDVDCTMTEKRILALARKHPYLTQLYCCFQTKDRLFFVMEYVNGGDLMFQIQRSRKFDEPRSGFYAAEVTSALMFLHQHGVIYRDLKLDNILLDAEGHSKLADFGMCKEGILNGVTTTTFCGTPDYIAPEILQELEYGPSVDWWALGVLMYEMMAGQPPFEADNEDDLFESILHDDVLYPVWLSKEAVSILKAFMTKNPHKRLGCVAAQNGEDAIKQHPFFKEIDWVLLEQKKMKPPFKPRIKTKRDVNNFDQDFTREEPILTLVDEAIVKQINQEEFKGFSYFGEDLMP
Procedure: As described in Example 1, the δV1-1 and ψδRACK peptides were analyzed to determine whether the peptides had activity, and if so, whether the activity was as an agonist or an antagonist of δPKC. As will be shown, δV1-1, δV1-2 and δV1-5 are δPKC antagonists and ψδRACK is a δPKC agonist. In these studies, the δV1-1 and ψδRACK peptides were modified with a carrier peptide by cross-linking via an N-terminal Cys-Cys bond to the Drosophila Antennapedia homeodomain (SEQ ID NO:8; Théodore, L., et al.; Johnson, J. A. et al., 1996b). […] Translocation of δPKC isozyme was assessed by Western blot analysis cystosolic and particulate fractions of treated cells. Subcellular localization of δPKC isozyme was assessed by immunofluorescence by probing the blot with […], and anti-εPKC antibodies. Translocation was expressed as the amount of isozyme in the particulate fraction over the amount of isozyme in non-treated cells. […]
Translocation of δPKC isozyme was assessed by using δPKC isozyme-specific antibodies in Western blot analysis (Santa Cruz Biotechnology). […] Subcellular localization of dPKC isozymes was assessed by chemiluminescence of blots probed with anti-δPKC, anti-αPKC and anti-εPKC antibodies. […] Changes in translocation of δPKC isozyme were also determined by immunofluoresence study of treated and fixed cells (Gray et al., 1997). […]

whole rat hearts = assay: Ex vivo Langendorff perfused whole hearts, peptide before 30 min global ischemia, creatine phosphokinase release
From the text: In another study performed in support of the invention, the δPKC selective inhibitor peptide, δV1-1, or the activator peptide, ψδRACK, were delivered to whole hearts ex vivo to determine if the peptides have activity when introduced extracellulary to a whole organ. As described in Example 3, δV1-1 and ψδRACK peptides were conjugated to a carrier peptide, a Tat-derived peptide. The peptides were delivered into Langendorff perfused rat hearts prior to induction of an ischemic period. After perfusion with the peptides, global ischemia was effected for 30 minutes. After the 30 minute ischemic period, the amount of creatine phosphokinase (CPK) released was monitored during a 30 minute reperfusion period.
Adult, male rats were anesthetized with i.p. avertin, and their hearts were rapidly removed and cannulated via the aorta for perfusion as described in the art (Colbert, M. C. et al.) using Langendorff set-up. Care was taken to have the hearts perfused within 90 seconds of removal. The hearts were perfused with oxygenated Krebs-Henseleit solution comprised of, in […], NaCl 120; KCl 5.8; NaHCO3 25; NaH2O4 1.2; MgSO4 1.2; CaCl2 1.0; and dextrose 10, pH 7.4 at 37 C.
After a 10-20 minute equilibration period, the hearts were perfused with δV1-1 peptide (SEQ ID NO:4) or with ψδRACK peptide (SEQ ID NO:6), prepared as described in Example 1 but conjugated to a Tat-derived peptide (Tat 47-57, SEQ ID NO:9), for 20 minutes. Perfusion was maintained at a constant flow of 10 mL/min with Krebs-Hanseleit solution containing 0.5 μM of the appropriate peptide. The Langendorff method employed used retrograde flow from the […] and into the coronary arteries, bypassing the pulmonary arteries.
To induce global ischemia, flow was interrupted for 30 minutes. After the ischemic event, the hearts were re-perfused for 30-60 minutes. During reperfusion, ischemia-induced cell damage was determined by measuring the activity of creatine phosphokinase (CPK) (absorbance at 520 nm) in the perfusate using a Sigma kit. […]

[1] = 0.5 μM Tat-conjugated peptide for 20 minutes before 30 minute global ischemia

T1 sequence (P09215 whole entry): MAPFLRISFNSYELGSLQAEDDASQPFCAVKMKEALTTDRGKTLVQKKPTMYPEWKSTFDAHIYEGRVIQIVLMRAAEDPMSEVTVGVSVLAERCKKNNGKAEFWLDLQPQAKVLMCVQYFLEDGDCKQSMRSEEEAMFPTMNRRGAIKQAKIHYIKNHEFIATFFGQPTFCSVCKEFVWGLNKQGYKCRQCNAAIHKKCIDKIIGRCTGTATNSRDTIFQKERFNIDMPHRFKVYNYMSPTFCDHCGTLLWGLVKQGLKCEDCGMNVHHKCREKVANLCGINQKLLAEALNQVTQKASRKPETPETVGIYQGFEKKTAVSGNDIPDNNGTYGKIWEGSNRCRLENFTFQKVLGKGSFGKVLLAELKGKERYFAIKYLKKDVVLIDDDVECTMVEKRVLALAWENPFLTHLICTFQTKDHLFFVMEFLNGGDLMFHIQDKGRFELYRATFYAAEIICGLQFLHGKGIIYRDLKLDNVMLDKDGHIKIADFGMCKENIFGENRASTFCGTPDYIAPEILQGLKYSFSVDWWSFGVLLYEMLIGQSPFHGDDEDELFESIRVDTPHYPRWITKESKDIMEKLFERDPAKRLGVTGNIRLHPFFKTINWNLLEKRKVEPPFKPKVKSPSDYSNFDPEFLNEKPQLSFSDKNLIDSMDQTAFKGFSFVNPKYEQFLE

MRAAEDPM (also: conjugated to Antennapedia or Tat carrier; listed as Rattus norvegicus) [ψδRACK, tested conjugated to Antennapedia or Tat carrier]
δPKC translocation induced by the peptide (δPKC; 500 nM Antennapedia-conjugated peptide, cardiac myocytes): selectively induced
effect on the δV1-1 inhibition of basal δPKC partitioning (δPKC; 500 nM ψδRACK together with 500 nM δV1-1): reversed
translocation of εPKC (εPKC): without affecting
enhancement of cardiac damage induced by ischemia (CPK release) (whole rat hearts; [1]): about 30%

SFNSYELGSL (also: conjugated to Antennapedia or Tat carrier; listed as Rattus norvegicus) [δV1-1, tested conjugated to Antennapedia or Tat carrier]
PMA-induced δPKC translocation (δPKC; 500 nM Antennapedia-conjugated peptide, with PMA, 10-20 minutes, newborn rat cardiac myocytes): inhibited
basal partitioning of δPKC in the particulate fraction (δPKC; 500 nM δV1-1, no ψδRACK): inhibited
translocation of εPKC (εPKC): did not inhibit
release of creatine kinase (whole rat hearts; 0.5 μM Tat-conjugated peptide before 30 minute global ischemia, reperfusion period): decreased
protection against ischemic damage in an intact heart (whole rat hearts; [1]): greater than 50%
